Test results reported in the supplement of paper PMC9170038.

System: K4 kissing-loop RNA reporter
Experiment: apparent KD of K4 kissing-loop reporter; higher = weaker reporter binding
Conditions: Eterna round: R107
Method: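 RNA-MaP round R107: designed RNA switches with theophylline, tryptophan, arginine or FMN aptamers are transcribed on-chip within common flanks. They are titrated with a labelled K4 kissing-loop RNA reporter in RNA-MaP buffer (100 mM Tris pH 7.5, 80 mM KCl, 4 mM MgCl2), without ligand or with the indicated ligand. Median apparent KD per design.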

[1] = input ligand: theophylline 20 uM
[2] = input ligand: tryptophan 2.4 mM
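Further: bound reporter read as fluorescence of individual clusters on recovered sequencing chips by microscopy, with normalized cluster intensities fitted with a binding model.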

Sequence	apparent KD of K4 kissing-loop reporter (input ligand: FMN 200 uM) [nM]	apparent KD of K4 kissing-loop reporter (input ligand: arginine 13.2 mM) [nM]	apparent KD of K4 kissing-loop reporter (input ligand: none) [nM]	apparent KD of K4 kissing-loop reporter [1] [nM]	apparent KD of K4 kissing-loop reporter [2] [nM]
GCGGACAUUCGCAGUGAUGUUGCGACGGAAGGAGCGGAUGAAAAUCCAGGUAGGUCGCCGACAAAAUUAAUUUUAAUGUGUUCGC [#03 K4 Arginine A Same State]	358	325	437	316	324
GCGUGGCAGGCGGCCGCCACUCGGACGAGUCACAGUGAUGUUGUGGUUUGCCAGUCGUCUUCAUCGAGGACCGGGUUUGUUGCGC [Exclusion Tryptophan B GF 18]	206	169	212	159	171
GCUAGCAAUGCAGGAUAUUAAAACGAGUGAUGUUCGGUACCGAGGAUGGGAAACCAUCCUCGGUAAUAAGAAGGGCAUUGCUAGC	210	182	194	211	172
GCUAUAGUGUUAGAUACCAGUAUCCUGCAAAGCCAUCAAAUGCAGUGAUGUUGCAUAAACUACCCUUGGCAGCUAAUUGGGCUCU [theeternabot_exclusion_KL_Theo_B_49]	226	201	213	213	187
GCUAUGGUAGGAAGGAGCGCUUAAUUACUAAUAAGAGUGAUGUUCGAUAGUAGGUAUUUGUAGCAGGUAGGUCGCCUACUAUAGC [KL-Arg B24]	264	174	444	230	215
GCUAUGGUAGGAAGGAGCGCUUGCUCGGUCAUAUGAGUGAUGUUCGAGACCGAGCAUUUAUAGCAGGUAGGUCGCCUACUAUAGC [Arginine B K4 8]	253	223	192	200	198
GCUAUGGUUGGAAGGAGCGUUGAAUUGUUGGUAAGAGUGAUGUUCGAUAGUGGAUAGUUGUAGCAGGUAGGUCGCCAACUAUAGC [KL-Arg B27]	377	367	532	517	395
GCUCAUCCGGCAGGAUAUAGGCAGGUAGAGUGAUGUUCGAACUGCAGUUAUCCAUCCUUCUACCUACUAGAAGGGCCGGAUGAGC	376	214	209	188	292
GCUGUCCAGUUCGAUACCAGAGUUAUCGCACUGUAGUGAUAAAGUGAUGUUUUAUCAGUCCUCCCUUGGCAGCGAUGCCCGGCUG [theeternabot_exclusion_KL_Theo_B_25]	164	151	166	165	154
GGACGCCGGUCGGCCGCCACUCACAGCAGUGAUGUUGCUGAGAAUGUAGCGGAGUGAUGUUCCGAGAGGACCGGGACUGCAGUUU [Same State Tryptophan B GF 9]	240	157	198	186	210
GGAGAGGUCUUGUUUGGAUGUGUUUAAUGGCGAGGACCGGUACGGCCGCCACUCGGGUGAUGUUAGUGAUGUUGAUGUAGUGAUG [wzwmullin]	103	76.1	93.4	149	89.5
GGAGCAGGUGAAGGAUAUCCCGGGCCAGAGUGAUGUUCUGGAUCCCUUGCCGUUUCUAAACGGGUGGGAGAAGGUCACUGAUAAG [Bibimati]	132	154	234	180	164
GGAGGAGAAUAUGAUACCAGCAGAGAGAGAGAGGAAGUAUAGUGAUGUUAUAUGUGAGAAUGCCCUUGGCAGCAUAAGAAGAAGG [whbob_SS_Theo_B_sa87]	140	147	156	170	132
GGAGUUACCUGGGAUACCAGUCGGAGACCCAGAGCUCGGAGUGAUGUUCUGGGAUGUUUCGGCCCUUGGCAGCUCUGGGUCUCCC [#2 Exclusion - Theophylline B Attempt #8 (HarryS)]	909	615	723	936	675
GGAUAGGACAGAGGAUAUCUCUGAGGCAAGAAAACUUGUCUCUAAAGAGAUGACUCAGUGAUGUUGGGAGAAGGCUGUCCUAUCG [FmnBX 10 - #SwitchBubble #StaticStem]	202	139	141	167	125
GGAUAGGACGGAGGAUAUGGGCUAGGCAAGAAUAACUUGUCUAGCAAAUCCAUGAGGAGUGAUGUUCCAGAAGGUUGUCCUAUCG [FmnBX 1 G10+U75]	167	94.7	85.2	106	75.4
GGAUAGGACGGAGGAUAUGGUAGUGAUGUUACCAAACUGGUUAAACAUGUCAGAAAACUGGCAUGACCAGAAGGCUGUCCUAUCG [FmnBX 27 G10]	112	65.2	73	67.5	76.6
GGAUAGGAUAGAGGAUAUGGAGAACACAAAAGUGACUUGUUGUGUUUAUCCAUAGGGAGUGAUGUUCCAGAAGGCUGUCCUAUCG [MatMod 24 - Jieux - Exclusion - FMN B]	296	178	201	183	156
GGAUAGGAUAGAGGAUAUGGCUUACGCAGAAAUAACUUGUUGUGUUUAUCCAUAGGGAGUGAUGUUCCAGAAGGCUGUCCUAUCG [MatMod 18 - Jieux - Exclusion - FMN B]	732	204	266	240	183
GGAUGCAUAGUAGAUACCAGCAAGCUCGGAUAGUGAUGUUGUUCGCAGUCAUUUCGGUAGUGCCCUUGGCAGCUAGACGCCCGAU [theeternabot_exclusion_KL_Theo_B_36]	109	92.7	104	92.3	97.5
GGCACGGUAACGCAACCGCCGUGCGCUUGGGAGGAUAUGUUUCGUGACAGAAGGCCCAGUGAUGUUGGGUCUGUUCAAAAGGACU [Ceenerus]	355	124	105	122	88.7
